Entries after “also recorded” stand apart in the source; their conditions may differ.
Tests used:
bMVEC-B cells [1] = assay: bMVEC-B DNA synthesis by thymidine incorporation (Example 3); assay type: cell-based; settings: rmSCF 1 ng/ml to 250 ng/ml, 72 hours
Protocol: To specifically confirm the pro-angiogenic effects of SCF in the brain, bMVEC-B cells were used. The cells were cultured in the presence of different concentrations of rmSCF (1 ng/ml to 250 ng/ml) or 0.1% BSA only medium for 72 hours. The rate of DNA synthesis was measured by thymidine incorporation.

[2] = system: c-Kit, MAPK and PI3K/Akt pathways in HBMEC; assay: Immunoblot of SCF/c-Kit signal transduction, HBMEC; assay type: cell-based, human; settings: SCF 50 ng/ml
Protocol: (§1) Confluent-grown ECs were treated with 50 ng/ml of SCF for 5, 10, 15, and 30 min after 24 hr of serum starvation. The ECs were collected with RIPA lysis buffer (Upstate, Charlottesville, Va.) containing 50 mM NaF, 1 mM Na3VO4, […], and Protease Inhibitor Cocktail (Roche). The antibodies were purchased from Cell Signaling Technology, Inc. (Beverly, Mass.) or as mentioned otherwise. All the primary antibodies were used in a 1:1000 dilution except for the anti-SCF antibody, which was used in a 1:2000 dilution. The primary antibodies were anti-phospho-c-Kit, anti-phospho-MEK1/2 and anti-MEK1/2, anti-phospho-p44/42 MAPK and anti-p44/42 MAPK, anti-phospho-SAPK/JNK and anti-SAPK/JNK, anti-phospho-p38 MAPK and anti-p38 MAPK, anti-phospho-Akt and anti-Akt, anti-phospho-mTOR and anti-mTOR, anti-phospho-4E-BP1 and anti-4E-BP1, anti-SCF and anti-VEGF (Chemicon, Temecula, Calif.), and anti-β-tubulin (Sigma). Re-blotting was done after membranes were stripped by re-blot kit (Chemicon). Tie2 detection in Matrigel plugs from the in vivo Matrigel assay was carried out by immunoprecipitation and immunoblotting. The gel plugs were carefully separated from muscle and skin and homogenized with RIPA lysis buffer. The resulting total tissue lysates ([…]) were immunoprecipitated with Tie2 antibody (Santa Cruz Biotechnology, Inc., Santa Cruz, Calif.) and then analyzed by immunoblot with Tie2 antibody (Zadeh et al. 2004 Am J Pathol 162:467-476).

[3] = system: c-Kit, MAPK and PI3K/Akt pathways in HUVEC; assay: Immunoblot of SCF/c-Kit signal transduction, HUVEC; assay type: cell-based, human
Protocol: as §1

bMVEC-B cells [4] = assay: bMVEC-B tube formation on matrigel (Example 3); assay type: cell-based; settings: vs SCF-absent control
Excerpt: Endothelial cell tube formation on extracellular matrix (ECM) is a commonly used in vitro model of EC differentiation and angiogenesis. We examined the SCF effects on the bMVEC-B cell tube formation.

SCID mice = assay: In vivo angiogenesis assay, subcutaneous Matrigel plugs with SCF or β-FGF; design: species or system mouse; settings: subcutaneous Matrigel in adult SCID mice, fourteen days after injection
Protocol: as §1
All adult mice (6-8 weeks of age) were from NCI-Fredrick, and the animal experiments were conducted on an animal experimentation protocol approved by the NCI's animal protection committee (the “ACUC”). […]

HMVEC-d = assay: Thymidine incorporation in HMVEC-d exposed to SCF; assay type: cell-based, human; settings: basal medium, 48 hr
Protocol: After ECs (3×10^3/well) were adhered to 96-well gelatin-coated plates (BD Discovery Labware, Bedford, Mass.), the EC growth medium was replaced by SCF ([…]) (R&D Systems, Minneapolis, Minn.) suspended in treatment medium (basal medium with 0.1% BSA) for an additional 48 hr (HUVEC and HMVEC-d) or 72 hr (BMVEC-b) with renewal of medium at 24 hr intervals. ECs were cultured for 4 hr in 0.25 μCi of [^3H]thymidine (Amersham Pharmacia Biotech, Piscataway, N.J.) at the end. High molecular mass [^3H]-radioactivity was precipitated and counted.

[5] = SCF 50 ng/ml after serum starvation

B1: SCF: Stem cell factor protein (R&D Systems), ligand of the c-Kit receptor (protein)
chain: KEICGNPVTDNVKDITKLVANLPNDYMITLNYVAGMDVLPSHCWLRDMVIQLSLSLTTLLDKFSNISEGLSNYSIIDKLGKIVDDLVLCMEENAPKNIKESPKRPETRSFTPEEFFSIFNRSIDAFKDFMVASDTSDCVLSSTLGPEKDSRVSVTKPFMLPPVA
bMVEC-B DNA synthesis (thymidine incorporation) (bMVEC-B cells [1]): stimulated DNA synthesis | phosphorylation of Akt [2]: induced immediate phosphorylation | phosphorylation of SAPK/JNK [2]: could not induce phosphorylation | phosphorylation of c-Kit [2]: induced immediate phosphorylation | phosphorylation of p38 MAPK [2]: could not induce phosphorylation | phosphorylation of p44/42 MAPK [2]: induced immediate phosphorylation | duration of p38 MAPK activation ([3]; SCF 50 ng/ml): over 30 min | phosphorylation of 4E-BP1 ([3]; SCF 50 ng/ml): increased phosphorylation of 4E-BP1 | phosphorylation of Akt ([3]; SCF 50 ng/ml): significantly enhanced | phosphorylation of MEK1/2 ([3]; SCF 50 ng/ml): dramatically increased | phosphorylation of p44/42 MAPK ([3]; SCF 50 ng/ml): dramatically increased | time of SAPK/JNK activation following SCF exposure ([3]; SCF 50 ng/ml): 10 to 15 min | duration of c-Kit auto-tyrosine-phosphorylation [3, 5]: 30 min | time of peak c-Kit auto-tyrosine-phosphorylation [3, 5]: 10 to 15 min | bMVEC-B tube formation on matrigel (bMVEC-B cells [4]): enhanced bMVEC-B cell tube formation; also recorded: at much earlier time point and more completely | Tie2 protein in Matrigel plug (SCID mice): high Tie2 expression | angiogenesis in Matrigel plug (H&E, vWF-positive vessels) (SCID mice): high density of blood vessels; also recorded: induced substantial angiogenesis | proliferation (thymidine incorporation) (HMVEC-d): stimulated proliferation in all three primary ECs in a dose-dependent manner
